Data reported in publication PMC2115704 (The Journal of Cell Biology, 1989).

Target: the molecule itself
Assay: SDS-PAGE in the absence of reductant

B1: platelet thrombospondin (natural protein)
chain: not shown
modifications: iodinated (residues not stated)
For B1, the “stoichiometry N” value was 3.
